Experimental data published in patent US20220040319A1 (Regeneron, published 2022).

Legend:
human MET on cells [1] = biological target: T1, human MET on cells (human, UniProt P08581 25-1390); experiment: flow cytometry, 10 µg/ml antibody on A549 cells, Alexa647 anti-human secondary
T1 construct: whole, on cells; also called c-Met; HGFR
Description: (§1) After one additional wash with FACS buffer, samples were fixed with Cytofix (BD Biosciences, #554655), filtered with FACS buffer and run on an iQue flow cytometer (Intelicyte). Mean fluorescence intensity (MFI) data was determined using FlowJo software (FlowJo LLC).

human MET on cells [2] = biological target: T1, human MET on cells; experiment: flow cytometry, 10 µg/ml antibody on MKN-45 cells, Alexa647 anti-human secondary
Description: as §1

human MET on cells [3] = biological target: T1, human MET on cells; experiment: flow cytometry, 10 µg/ml antibody on SNU-5 cells, Alexa647 anti-human secondary
Description: as §1

human MET on cells [4] = biological target: T1, human MET on cells; experiment: cell-based or functional assay
human MET on cells [5] = biological target: T1, human MET on cells; experiment: cell-based or functional assay; remark: listed apart in the source
human MET on cells [6] = biological target: T1, human MET on cells; experiment: cell-based or functional assay; remark: listed apart in the source
human MET on cells [7] = biological target: T1, human MET on cells; experiment: flow cytometry, 10 µg/ml antibody on U87MG cells, Alexa647 anti-human secondary
Description: as §1

human MET on cells [8] = biological target: T1, human MET on cells; experiment: flow cytometry, 10 µg/ml antibody on Hs746t cells, Alexa647 anti-human secondary
Description: as §1

human MET on cells [9] = biological target: T1, human MET on cells; experiment: flow cytometry, 10 µg/ml antibody on EBC-1 cells, Alexa647 anti-human secondary
Description: as §1

human MET on cells [10] = biological target: T1, human MET on cells; experiment: flow cytometry, 10 µg/ml antibody on MDA-MB-231 cells, Alexa647 anti-human secondary
Description: as §1

T1 sequence (P08581 25-1390 limits assumed, form in doubt): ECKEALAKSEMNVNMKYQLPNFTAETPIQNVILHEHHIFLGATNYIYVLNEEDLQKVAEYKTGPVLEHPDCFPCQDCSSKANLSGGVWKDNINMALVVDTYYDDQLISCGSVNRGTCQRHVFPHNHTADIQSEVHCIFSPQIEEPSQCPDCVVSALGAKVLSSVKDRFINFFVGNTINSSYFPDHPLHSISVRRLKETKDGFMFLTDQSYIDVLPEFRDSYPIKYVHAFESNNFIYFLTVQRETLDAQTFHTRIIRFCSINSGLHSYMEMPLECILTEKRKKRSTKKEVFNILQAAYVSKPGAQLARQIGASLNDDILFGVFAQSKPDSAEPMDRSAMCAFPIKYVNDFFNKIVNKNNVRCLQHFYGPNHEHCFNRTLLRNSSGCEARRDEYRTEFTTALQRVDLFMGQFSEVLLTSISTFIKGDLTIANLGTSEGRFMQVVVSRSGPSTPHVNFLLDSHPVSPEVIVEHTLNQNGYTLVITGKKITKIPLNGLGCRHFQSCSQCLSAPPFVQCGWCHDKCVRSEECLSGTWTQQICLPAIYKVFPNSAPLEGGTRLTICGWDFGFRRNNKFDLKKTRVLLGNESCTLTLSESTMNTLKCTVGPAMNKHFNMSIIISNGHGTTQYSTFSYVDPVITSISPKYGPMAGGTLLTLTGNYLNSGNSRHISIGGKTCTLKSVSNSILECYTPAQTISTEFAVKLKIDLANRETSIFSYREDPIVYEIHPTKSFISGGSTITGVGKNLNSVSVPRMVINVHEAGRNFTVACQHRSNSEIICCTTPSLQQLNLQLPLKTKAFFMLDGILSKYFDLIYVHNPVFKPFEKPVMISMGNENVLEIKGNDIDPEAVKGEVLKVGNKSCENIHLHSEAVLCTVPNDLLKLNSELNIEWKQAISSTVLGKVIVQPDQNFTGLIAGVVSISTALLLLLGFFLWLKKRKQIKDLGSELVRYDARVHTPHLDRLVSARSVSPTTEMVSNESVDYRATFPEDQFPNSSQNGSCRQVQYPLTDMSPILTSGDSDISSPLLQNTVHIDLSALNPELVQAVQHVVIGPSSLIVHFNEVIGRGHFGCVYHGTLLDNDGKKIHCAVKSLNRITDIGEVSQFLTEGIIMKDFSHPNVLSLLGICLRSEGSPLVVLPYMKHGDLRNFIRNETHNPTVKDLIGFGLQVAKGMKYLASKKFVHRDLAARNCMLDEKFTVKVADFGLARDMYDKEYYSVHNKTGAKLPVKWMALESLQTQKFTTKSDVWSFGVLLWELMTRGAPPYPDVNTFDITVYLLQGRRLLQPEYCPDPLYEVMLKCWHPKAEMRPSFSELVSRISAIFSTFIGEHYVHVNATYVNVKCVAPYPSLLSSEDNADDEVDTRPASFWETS

B1: H4H14635D (bispecific antibody, human IgG4, V domains shown)
VH 1: QVQLVESGGGVVQPGRSLRVSCVVSGFTFSSFGMHWVRQAPDKGLEWVAVIWYDGSNDYYSDSVKGRFTISRDNSKNTLFLQMNRLRAEDTAVYYCARANNWNRFDAFDLWGQGTMVTVSS
VH 2: EVQLVESGGGLVQPGGSLRLSCAASGFIVTTNYMTWLRQAPGKGLEWVSLIYSSGHTYYADSVKGRFTISRHNSKNTLYLQMDSLRAEDTAVYYCASAFAADVFDIWGQGTMVTVSS
VL: not shown
notes: MET x MET bispecific, human IgG4; also called No. 42
Human MET on cells [1]
  FACS Binding (MFI Fold Above Isotype Control): 12 fold above isotype control
Human MET on cells [2]
  FACS Binding (MFI Fold Above Isotype Control): 183 fold above isotype control
Human MET on cells [3]
  FACS Binding (MFI Fold Above Isotype Control): 477 fold above isotype control
Human MET on cells [4]
  % Inhibition, HEK293/SRE-Luc Blocking Activity (HGF, 1 h mAb pre-bind): 85%
  EC50, Ligand (HGF)-Independent HEK293/SRE-Luc Activation: 1.4 nM
  Fold Response, Ligand (HGF)-Independent HEK293/SRE-Luc Activation: 2.2 fold
  IC50, HEK293/SRE-Luc Blocking Activity (HGF, 1 h mAb pre-bind): 0.19 nM
Human MET on cells [5]
  IC50, 6-day in vitro cytotoxicity, A549: > 100 nM
  IC50, 6-day in vitro cytotoxicity, EBC-1: > 100 nM
  IC50, 6-day in vitro cytotoxicity, Hs746t: > 100 nM
  Max % Kill, 6-day in vitro cytotoxicity, A549: 0%
  Max % Kill, 6-day in vitro cytotoxicity, EBC-1: 11%
  Max % Kill, 6-day in vitro cytotoxicity, Hs746t: 7%
Human MET on cells [6]
  Relative MET Level, SNU5 cells, 18 hrs: 0.27 relative to control (hFc)
Human MET on cells [7]
  FACS Binding (MFI Fold Above Isotype Control): 18 fold above isotype control
Human MET on cells [8]
  FACS Binding (MFI Fold Above Isotype Control): 39 fold above isotype control
Human MET on cells [9]
  FACS Binding (MFI Fold Above Isotype Control): 263 fold above isotype control
Human MET on cells [10]
  FACS Binding (MFI Fold Above Isotype Control): 11 fold above isotype control
